Target: 1G4 TCRαβ with TCRβ T130C/H172C, on J8Zb2m-α-β- reporter T cells (human)

With “iTAg tetramer/APC – HLA-A*02:01 NY-ESO-1 (…) (from UniProt P61769 21-119) (peptide-MHC)” as the substance, how does the peak NFAT reporter response to HLA–antigen tetramers relative to wild type read?
Its peak NFAT reporter response to HLA–antigen tetramers relative to wild type is 50 % reduction.
